Experiments:
[1] = molecular target: receptor binding domain (RBD) of the SARS-CoV-2 spike protein with C-terminal 6xHis-tag (SARS-CoV-2) (UniProt P0DTC2); assay: SPR
[2] = molecular target: recombinant CD89 (Fc-alpha receptor, FcαRI) with C-terminal His-tag (UniProt P24071); assay: SPR
recombinant CD89 (Fc-alpha receptor, FcαRI) with C-terminal His-tag, sequence (P24071 22-227): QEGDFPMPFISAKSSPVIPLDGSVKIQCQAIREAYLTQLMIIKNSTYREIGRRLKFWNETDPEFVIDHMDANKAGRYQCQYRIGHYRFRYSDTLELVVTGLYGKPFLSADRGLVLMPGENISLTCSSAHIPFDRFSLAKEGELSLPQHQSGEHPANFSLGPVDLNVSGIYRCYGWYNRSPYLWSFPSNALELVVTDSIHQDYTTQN

COVA2-15 IgA1 produced in the H10-KO line co-infiltrated with GalNAc-T2 and C1GalT1 ("H10+O"), sequence (P01876 whole entry, looked up, tested part not stated): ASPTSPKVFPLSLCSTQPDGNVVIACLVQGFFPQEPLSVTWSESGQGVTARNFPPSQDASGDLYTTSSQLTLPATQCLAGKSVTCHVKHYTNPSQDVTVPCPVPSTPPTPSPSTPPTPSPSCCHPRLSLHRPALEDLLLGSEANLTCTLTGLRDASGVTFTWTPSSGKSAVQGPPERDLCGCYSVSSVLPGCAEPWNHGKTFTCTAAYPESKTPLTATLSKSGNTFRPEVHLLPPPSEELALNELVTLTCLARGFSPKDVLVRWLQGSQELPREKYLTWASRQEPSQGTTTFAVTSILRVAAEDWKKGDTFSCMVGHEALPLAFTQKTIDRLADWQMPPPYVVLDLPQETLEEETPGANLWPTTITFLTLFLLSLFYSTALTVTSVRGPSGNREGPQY
COVA2-15 IgA1 produced in N. benthamiana wildtype ("WT"), sequence (P01876 whole entry, looked up, tested part not stated): as above
COVA2-15 IgA1 produced in HEK293-6E cells ("HEK"), sequence (P01876 whole entry, looked up, tested part not stated): as above
COVA2-15 IgA1 produced in the NbP4H10 knockout line pB109-1C ("H10-KO"), sequence (P01876 whole entry, looked up): as the sequence (P01876 whole entry, looked up, tested part not stated) above

Row | Substance | Kd [1] [nM] | Kd [2] [nM]
1 | COVA2-15 IgA1 produced in the H10-KO line co-infiltrated with GalNAc-T2 and C1GalT1 ("H10+O") (from UniProt P01876) | 1.25 | 31.7
2 | COVA2-15 IgA1 produced in N. benthamiana wildtype ("WT") (from UniProt P01876) | 1.53 | 66.6
3 | COVA2-15 IgA1 produced in the NbP4H10 knockout line pB109-1C ("H10-KO") (from UniProt P01876) | 1.31 | 61.3
4 | COVA2-15 IgA1 produced in HEK293-6E cells ("HEK") (from UniProt P01876) | 0.85 | 36.7

Source: article PMC10953500
